In this assay the target is T1, G-CSFR/gp130 chimera proteins (Homo sapiens, UniProt P40189+Q99062).
T1 construct: the extracellular domain of the human G-CSF receptor fused to the full transmembrane domain; expressed in transfected cells; host or cells: F11 cells
T1 sequence (Q99062+P40189 with tags, fused parts or gaps): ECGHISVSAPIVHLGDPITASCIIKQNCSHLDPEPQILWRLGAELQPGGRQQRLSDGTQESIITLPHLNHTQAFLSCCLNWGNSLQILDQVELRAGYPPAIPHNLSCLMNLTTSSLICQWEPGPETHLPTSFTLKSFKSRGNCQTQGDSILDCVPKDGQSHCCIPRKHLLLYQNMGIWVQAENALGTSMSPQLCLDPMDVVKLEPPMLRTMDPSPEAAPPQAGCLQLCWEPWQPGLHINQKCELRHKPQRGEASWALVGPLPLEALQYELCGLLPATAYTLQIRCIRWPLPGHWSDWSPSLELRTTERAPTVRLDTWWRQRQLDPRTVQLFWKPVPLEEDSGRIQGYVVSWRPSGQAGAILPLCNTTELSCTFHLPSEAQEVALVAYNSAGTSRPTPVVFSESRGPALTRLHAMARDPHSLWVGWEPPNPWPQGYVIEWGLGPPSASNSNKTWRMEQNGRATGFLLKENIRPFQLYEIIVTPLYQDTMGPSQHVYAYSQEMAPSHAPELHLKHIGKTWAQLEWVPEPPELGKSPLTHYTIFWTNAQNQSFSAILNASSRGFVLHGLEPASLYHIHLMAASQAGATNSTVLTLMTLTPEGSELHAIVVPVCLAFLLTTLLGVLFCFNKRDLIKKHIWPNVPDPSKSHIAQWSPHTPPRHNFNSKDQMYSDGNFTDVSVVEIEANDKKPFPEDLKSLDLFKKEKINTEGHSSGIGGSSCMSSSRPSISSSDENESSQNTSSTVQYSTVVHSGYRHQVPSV
In words: G-CSF stimulation of G-CSFR/gp130 chimera proteins in F11 cells, cell mortality by Trypan blue exclusion. It is filed as cell-based. The following applies: 100 nM; G-133 expressed.

B1: G-CSF: human G-CSF, ligand stimulating G-CSFR/gp130 chimera proteins (protein, UniProt P09919 31-207, looked up)
Granulocyte …: TPLGPASSLPQSFLLKCLEQVRKIQGDGAALQEKLVSECATYKLCHPEELVLLGHSLGIPWAPLSSCPSQALQLAGCLSQLHSGLFLYQGLLQALEGISPELGPTLDTLQLDVADFATTIWQQMEELGMAPALQPTQGAMPAFASAFQRRAGGVLVASHLQSFLEVSYRVLRHLAQP
As to B1, the “prevention of neuronal cell death induced by V642I-APP” value is recorded as “partially prevented”.

These data come from patent US8173771B2, “Humanin receptor or humanin-like polypeptide receptor” (Keio Univeristy, priority 2005, dated 2012).
